Measured values published in patent publication US20160193348A1, “MUCOUS LAYER-ADHESIVE POLY-r-[sequence] ACID NA[…] DRUG [sequence] SYSTEM USING SAME” (priority 2013, published 2016).

Assays:
[1] = mucous adhesive property by SPECT/CT imaging after intranasal injection; conditions: 123I-labeled, mice, imaging at 1, 6 and 12 hours
Protocol: The selected eluate fraction was diluted with PBS to a final concentration of 500 μg/ml in view of ^123I-activity to be injected per mouse.
The amount of sample injected for SPECT/CT imaging was such that the sample would have a ^123I-activity of about 200 μCi or more in 40 μl upon nasal administration. 40 μl of a sample was injected into each mouse using a tip for nasal administration, and at 1, 6 and 12 hours after injection, SPECT/CT imaging was started. SPECT/CT imaging was performed for about 1 hour, in which CT imaging was performed for 10 minutes, followed by SPECT imaging for 50 minutes. Because the amount of sample injected intranasally is limited to 40 μl or less, the concentration of the sample is necessarily required to ensure ^123I-activity for imaging. ^123I-labeled nanomicelles were centrifuged, filtered (Ultracel, 10 kDa) and concentrated, thereby ensuring activity required for imaging per 40 μl. The sample was injected into both nasal cavities alternately at intervals of a few minutes depending on the size and condition of the mouse.

[2] = immunohistofluorescence imaging after intranasal injection of FITC-labeled OVA; conditions: mice

B1: OVA alone: OVA (ovalbumin, Sigma-Aldrich), model antigen injected alone (protein, UniProt P01012 2-386, looked up)
Ovalbumin: GSIGAASMEFCFDVFKELKVHHANENIFYCPIAIMSALAMVYLGAKDSTRTQINKVVRFDKLPGFGDSIEAQCGTSVNVHSSLRDILNQITKPNDVYSFSLASRLYAEERYPILPEYLQCVKELYRGGLEPINFQTAADQARELINSWVESQTNGIIRNVLQPSSVDSQTAMVLVNAIVFKGLWEKAFKDEDTQAMPFRVTEQESKPVQMMYQIGLFRVASMASEKMKILELPFASGTMSMLVLLPDEVSGLEQLESIINFEKLTEWTSSNVMEERKIKVYLPRMKMEEKYNLTSVLMAMGITDVFSSSANLSGISSAESLKISQAVHAAHAEINEAGREVVGSAEAGVDAASVSEEFRADHPFLFCIKHIATNAVLFFGRCVSP
With B1 the “time OVA remained in the nasal cavity (SPECT/CT)” value [1] was at most 6 h and the “time OVA remained in the nasal cavity (immunohistofluorescence)” value [2] was about 1 h.
